Measurements: patent CN113563464A (NAT CENTER FOR AIDS/STD CONTROL AND PREVENTION CHINA CDC, dated 2021)

B1: WJQ-C11 (antibody, V domains shown)
VH: EVQLVESGGGLVQPGGSLRLSCAASGFAFSTYEMNWVRQAPGKGLEWVSYIHNSGNPVYYADSVKGRFTISRDNAENSLYLQMNSLRAEDTAIYYCARALRYSTSWYDYWGQGTLVTVSS
VL: EIVLTQSPVSLSLSPGERATLSCRASQSVSSYLAWYQQKPGQAPRLFIYDASKRATGIPARFSGSGSGTDFTLTISSLEPEDFAVYYCQQRSNWPRTFGQGTKVEIKR
B2: SW-C11 (antibody, V domains shown)
VH: EVQLVESGGGLIQPGGSLRLSCAASEFIVSRNYMSWVRQAPGTGLEWVSVIYPGGSTFYADSVKGRFTISRDNSKNTLYLQMDSLRVEDTAVYYCARDYGDFYFDYWGQGTLVTVSS
VL: EIVMTQSPVSLSVSPGERATLSCRASQGVASNLAWYQQKAGQAPRLLIYGASTRATGIPARFSGSGSGTEFTLTISTLQSEDSAVYYCQQYNDRPRTFGQGTKLEIKR
B3: WJQ-G10 (antibody, V domains shown)
VH: EVQLVESGGGLVQPGESLRLSCAASGLTVSSNYMSWVRQAPGKGLEWVSVIYAGGSTFYADSVKGRFTISRDNSKNTLYLQMNSLRAEDMAIYYCARDLSYYGMDVWGQGTTVTVSS
VL: DIQLTQFPFSLSASVGDRVTITCRASQGISTYLAWYQQKPGRAPKLLIYAASTLQSGVPSRFSGSGSGTEFTLTISSLQPEDFATYYCQLLNSYPVHFGQGTKLEIKR

Target: SARS-Cov-2的生物素化RBD (RBD蛋白, NC_045512, 6×His-Avi标签) (SARS-CoV-2, UniProt P0DTC2 319-541)

Binder	Kd [nM]
B1	5.29
B2	< 0.001
B3	1.37
